# Assay results reported in the nanobody polyreactivity screen of Harvey et al. (2022).
# Experiment: yeast display, Sf9 membrane polyspecificity reagent, FACS + sequencing; frameworks hold sequencing errors
# In short: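 Galactose induction of a Saccharomyces cerevisiae BJ5465 synthetic nanobody display library ran 36–48 hours. The cells were then stained for 1 hour at 4 °C with 10% biotinylated, detergent-solubilized Sf9 membrane reagent, pulled down on streptavidin microbeads and FACS-sorted into low and high (top ~1%) gates on expression and reagent-binding fluorescence. Labels for polyreactivity follow the gate of origin.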
row,Sequence,polyreactivity (PSR sort gate)
1,QVQLVESGGGFVQAGGSLRFSCAAYGSTFNQYAMGWYRQAPGKEREFVASITFSGGRTYYADSVQGRFTLSRDNEQNTVYLQMNSLKTEDPAVSYCNAVGYTPRKPSKFDYRGQGTQVTVSS,low polyreactivity
2,QVQLVESGGGFVQAGGSLRLICAASGRIFGYYAMAWYRQAPGQERELVAAINWGGGITYYADSVKGRFTISRDNAKNTVYLQMNSLKPEDTAVYYCATDYKLVYSIYDYWGQGTQVTVSS,low polyreactivity
3,QVQLVESGGGFVQAGGSLRLSCAASGFTFRKYARGWYRQAPGNERELVAVINIVGSTYYADSVKGRFTISRDNAKNTVYLQMNSLKPEDTAVYYCAADWSYRLKYYWYGGFNYWGQGTQVTVSS,high polyreactivity
4,QVQLVESGGGFVQAGGSLRLSCAASGFTFWRYTMGWYRQAPGKERELVAAINWSGGRTYYADSVKARFTISRDNAKNTVYLQMNSLTPEDTAVYYCATGYSTSVGGSQGDSWGQGTQVTVSS,high polyreactivity
5,QVQLVESGGGFVQAGGSLRLSCAASGIIFDYNAMGWYRQAHGKERELVAAISGRSGRTYYADSVKGRFTISRDNAKNTVYLQMNSLKPEDTAVYYCAARWYAGGNYWGQGTQVTVSS,high polyreactivity
6,QVQLVESGGGFVQAGGSLRLSCAASGLIFSWYDMGWYRQAPGKERELVAAITTDGDDTYYADSVKGRFTISRDNAKNTVYLQMNSLKPEDTAVYYCAADSELAIRYPDRDYDSWGQGTQVTVSS,low polyreactivity
7,QVQLVESGGGFVQAGGSLRLSCAASGLTFYGNVMGWYRQAPGKERELVAAITRRGTSTYYADSVKGRFTLSRDYAKNTVYLQMNRLKPEDTAFYYCAAGTAYSRFGYWGQGTQVTVSS,high polyreactivity
8,QVQLVESGGGFVQAGGSLRLSCAASGRIFLTNAMGWYRQAPGKERELVAAITSGGSTYYADSVKGRFTISRDNAKNTVYLQMNSLKPEDPAVYYCNADTDRYSPYEYDFWGQGTQVTVSS,low polyreactivity
9,QVQLVESGGGFVQAGGSLRLSCAASGRIFPGYAKGWYRQAPGKERELVAAISASGGSTYYADSVKGRFTISRDNAKNTVYLQMNSLKPEDTAVYYCNAVYRRYEYWGQGTQVTVSS,high polyreactivity
10,QVQLVESGGGFVQAGGSLRLSCAASGRIFPWNTMGWYRQATGNERELVAGITSGGSTNYADSVKGRFTISRDNAKNTVYLQMNSLKPEDTAVYNCAARGYYWYISGVYEYEYWGQGTQVTVSS,low polyreactivity
11,QVQLVESGGGFVQAGGSLRLSCAASGRIFYNYAMGWYRQAPGKERELVAAMSGSGGSTYYADSVKGRFTISRDNAKNTVYLQMNSLKPEDTAVYYCSTSGPQYYSRNVDYWGQGTQVTVSS,low polyreactivity
12,QVQLVESGGGFVQAGGSLRLSCAASGSIFWLYDMGWYRQAAGKVRELVAAISWSTGGTYYADSVKGRFTISRENAKNTVYLQMNSLKPEDTAVYYCNAETYDQYNYWGQGTQVTVSS,low polyreactivity
13,QVQLVESGGGFVQAGGSLRLSCAASGSILSGYAMGWYRPAPGKERELVAAITSGGDTNYADSVKGRFTISRDNAKNTVYLQMNSLKPEDTAVYYCNRRGDFRIAYYDPMDYWGQGTQVTVSS,low polyreactivity
14,QVQLVESGGGFVQAGGSLRLSCAASGSTFGYYVMGWYRQAPGKERELVAAISASGGSTYYADSVKGRFTISRDNAKHTVYLQMNSLKPEDTAVYYCAAGGYYVRYDYWGQGTQVTVSS,high polyreactivity
15,QVQLVESGGGFVQAGGSLRLSCAASGSTFRFYAMGWYRQAPGKERELVAAINGSGGSTYYADSVKGRFTISRDNAKNTVYLQMNSLKPEDTAVYYCAAESNTGPGEDYWGQGTQVTVSS,low polyreactivity
16,QVQLVESGGGFVQAGGSLRLSCAASGYTLRIYAMGWYRQAPGKERELVAAISRSGGRTFYADSVKGRFTISRDNAKNTVYLQMNSLKPEDSAVYYCAAVPRSYDTGRMDYWGQGTQVTVSS,high polyreactivity
17,QVQLVESGGGFVQAGGSLRLSCASSGRIFRGYTMGWYRQAPGKEREFVAAIRRSGGTTYYADSVKRRFTISRDNAKNTVYLQMNSLKPEDTAVYYCAAGYPGFTYQRRKYDYWGQGTQVTVSS,high polyreactivity
18,QVQLVESGGGFVQAGGSLRVSCAASGSIFGSYAMGWYRQAPGKERELVADISSGGSTNYADSVKGRFTISRDNAKNTVYLQMNSLKPEDTAVYYCNADDPAGYLYWWGSWLESDYWGQGTQGTVSS,low polyreactivity
19,QVQLVESGGGFVQAGRSLRLSCAASGSTFYIYAMGWSRQAPGKEREMVADISRGDSTNYADSVKGRFTISRDNAKNPVYLQLNSLKPEDTAVYYCNAAFRGERDWFSGRRYKFDYWGQGTQVTVSS,low polyreactivity
20,QVQLVESGGGIVHAGGSLRLSCAASGSTIDVYDMGWYRQAPGKERELVAAITTSGGGTYYADSVKGRFTISRDNAKNTVYLQMNRLKPEDTAVYYCAADTWRDGDDYWGQGTQVTVSS,low polyreactivity
21,QVQLVESGGGIVQAGCSLRFSCAASGGTFGYYTLGWYRQAPGKERQLVAAISSGGGTDYADSVKGRFTISRDNAKNTVSLQMNSLKAEDTAVYYCNAQWLEWHYVFLPSYTMDYWGLGTQVTVSS,low polyreactivity
22,QVQLVESGGGIVQAGCSLRLSCAASGRIFGYYSMGWYRQAPGKDTELVAAISNGGSTHYADSVKGRFTISRDNAKNTVYLHMNSLKPEDSAVYYCAARWHYGYYAYYYWGQGTQVTVSS,high polyreactivity

row,Sequence,polyreactivity (PSR sort gate)
1,QVQLVESGGGIVQAGGCLRLSFAASGFSFAKNAMGSYRQAPGKERELVAAIRSGGSTKYADSVNGRFTISRDNAKNTVYLQMNSLKPEDTAVYYCNARSTWSRTRPAYDYWGQGTQVTVSS,high polyreactivity
2,QVQLVESGGGIVQAGGRLRLSCAASGRIFDDNSMGWYRKAPGKETELVATISSSGVSTSYADSVKGRFTISRDNAKNTVYFQMNSLNPEYTAVYFCNAGYRLRYKFDYWGQGTQVTVAS,low polyreactivity
3,QVQLVESGGGIVQAGGSHRLICAASGFTYIRYAMGWYRQAPGKERELVASISNRGGRTYYADSVKGRFTNSRDNAKNTVYLQMNSLKPEDTAVYYCAAGYSYYSWGQGTQVTVSS,high polyreactivity
4,QVQLVESGGGIVQAGGSLPLICAASGFTFDWYALGWYRQAPGKERELVAAITTSGGTTYYADSVKGRFTMSRDNAKITVYLQMNSLKPEDTAVFYCAADADTDVFYILQEYDYWGQGTQVTVSS,low polyreactivity
5,QVQLVESGGGIVQAGGSLPLSCAASGIIFSVNAMGWYRQAPGKERELVAAITYSGGSTYYADSVKGRYTISRDNAKNTVYLQMNSLKPEVTAVYYCAAETYSSGEWYDYWGQGTQVTVSS,high polyreactivity
6,QVQLVESGGGIVQAGGSLRLICAASGFIFVTYAMGWYRQAPGKETELVAAITNSGGTTYYADSVKGRFTISRDNAKNTVYLQMNSLKPEDTAVYYCAADVWTPYLISLKSGYDYWGQGTQVTVSS,low polyreactivity
7,QVQLVESGGGIVQAGGSLRLICAASGFTFGYYTMGWYRQAPGKEREFVAAISGSGTNTYYADSVKGRFTISRDYAKNTVYLQMNSLKPEYTAVYYCNARWSLVSSGFDGGYWGQGSQVTVSS,high polyreactivity
8,QVQLVESGGGIVQAGGSLRLICAASGSNFNRYAMGWYRQAPGKERQLVARITNRSGNTYYADSVKGRFTISRDIAKNTVYLQMTSLKPEDTAVYYCAATKSLGRYIMEYWGLGTQVTVSS,low polyreactivity
9,QVQLVESGGGIVQAGGSLRLICDASGLIFTLYAMGWYRQAPGKETELVAAIDDGGRTYYADSVKGRFTISRDNAKNTVYLQMNSMIPEDTAVYYGAAVWLAVYSVWTDHHYDYWGQGTQVTVSS,low polyreactivity
10,QVQLVESGGGIVQAGGSLRLISAASGFIFAIYAMGWYRQAPGNERELVAGISSSGSTTRYADSVKVRFTISRDYAKYTVYLQLISLIPEDTAVYDCAADGYPGDDYWGQGTQVTVSS,high polyreactivity
11,QVQLVESGGGIVQAGGSLRLSCAASGFIFNTNAMGWYRQAPGKERELVAGISRSGVRTYYADSVKGRFTISRDNAKNTVYLQMNSLKPEDTAVYYCAATSLPRYYYWGQGTQVTVSS,low polyreactivity
12,QVQLVESGGGIVQAGGSLRLSCAASGFIFRYYVMGSYRQAPGKERELVASISRSGTSTYYADSVKGRFTISRDNAKNTVYLQMNSLKPEDTAVYYCAKGVGRGFGSATGYYWGQGTQVTVSS,high polyreactivity
13,QVQLVESGGGIVQAGGSLRLSCAASGFTFFIYTMGWYRQAPGKERELVAAIRSRTGSTYYADSVKGRITISRDNAKNTVYLQMNSLKPDDTAVYYCAATRVRSASYSIEYDYWGQGTQVTVSS,high polyreactivity
14,QVQLVESGGGIVQAGGSLRLSCAASGFTFPVYAMGWYRQAPGKEREFVAAITYIGGSTYADSVKGRFTISRDNAKNTVYLQMNSLKPEDTAVYYCAADIITEYWADYLGYLEYDYWGQGTQVTVSS,low polyreactivity
15,QVQLVESGGGIVQAGGSLRLSCAASGFTFWRYARGWYRQAPGKERELVAGISSGGSTNYADSVKGRFTISRDNAKNTVYLQMNSLKPEDTAVYYCAARGNYFYGIYGYWGQGTQVTVSS,low polyreactivity
16,QVQLVESGGGIVQAGGSLRLSCAASGFTFWYYAMGWYRQAPGKERELVAVINTSGGSTYADSVKGRFTISRDNAKNTVYLQMNSLKPEDTAVYYCNKDFIYGYDAASYRPEYDYWGQGTQVTVSS,low polyreactivity
17,QVQLVESGGGIVQAGGSLRLSCAASGFTILRYVMGWYRQAPGKERELVAAISYSGGRTYYADSVKGRFTISRDNAKHTVYLHMNSLKPEDPAVYYCAAARPFGYPPVMKYDYWGQVTQVTVSS,high polyreactivity
18,QVQLVESGGGIVQAGGSLRLSCAASGFTLWLNAMGWYRQAPGKERELVAAITTSDDGTYYADSVKGRFTISRDNAKNTVYLQMNSLKPEDTAVYYCASDYYSVLYDYWGQGTQLTVSS,low polyreactivity
19,QVQLVESGGGIVQAGGSLRLSCAASGFTYARYAKGWYRQAPGKERELVAAITRRGGSTHYADSVKGRFTISRDNAKNTVYLQMTSLKPEDTAVDYCAAYSLHNYLSEYGDWGQGTQVTVSS,high polyreactivity
20,QVQLVESGGGIVQAGGSLRLSCAASGIIFSIYGMGWYRQAPGKERELVAAINSGSSTNYADSVKGRFTISRDNAKNTVYLQMNSLKREDTAVYYCNADYRYPQYYHRTWIRYDYWGQGTQVTVSS,high polyreactivity
21,QVQLVESGGGIVQAGGSLRLSCAASGLIFSRYTMGWYRQAPAKEMELVAAISGRGTSTYYAYSVKGRFTISRDNAKNTVYLLMNSLKPEDTAVYYCATSKSYSAFDYWGQGTQVTVSS,high polyreactivity
